Experimental data published in paper PMC3407147, “Therapeutic Inhibition of Pro-Inflammatory Signaling and Toxicity to Staphylococcal Enterotoxin B by a Synthetic Dimeric BB-Loop Mimetic of MyD88” (PLoS ONE, 2012).

Biological target: the molecule itself
Experiment: peptide or protein array; MyD88 TIR domain monomer spotted in quadruplicate on nitrocellulose-coated slides; biotinylated MyD88 (25 µg/ml) in 50 mM Hepes, 0.1% Tween, 3% human antibody serum, 2 h at room temperature; detected with streptavidin-Alexa Fluor 647; with or without pre-incubation with EM-163 (100 and 50 µg/ml) or DMSO

B1: recombinant MyD88 TIR domain (amino acids 157-296) (domain or fragment, human, UniProt Q99836 157-296, looked up)
chain: MPERFDAFICYCPSDIQFVQEMIRQLEQTNYRLKLCVSDRDVLPGTCVWSIASELIEKRCRRMVVVVSDDYLQSKECDFQTKFALSLSPGAHQKRLIPIKYKAMKKEFPSILRFITVCDYTNPCTKSWFWTRLAKALSLP
modifications: biotin (EZ Link Biotin BMCC kit) on the copy in solution; the copy spotted on the slide is not biotinylated
notes: also called MyD88 (157-296); TIR domain protein (monomer); not shown: His, N-terminal, cleaved; MBP, N-terminal, cleaved
  binding result: binds
